Assay [1] addresses Cdk7(R167A)/Cyclin H binary complex (human, UniProt P50613 2-346; P51946 1-323, R167A). As to the kind of experiment: cell-based or functional assay.
In assay [2] the target is T1, wild-type Cdk7/Cyclin H binary complex, doubly phosphorylated (human, UniProt P50613 2-346; P51946 1-323, phosphoserine at 164; phosphothreonine at 170 | M1 acetylated). As to the kind of experiment: cell-based or functional assay.
Assay [3] concerns the target T1, wild-type Cdk7/Cyclin H binary complex, …. Put plainly: SPR; MBP-Mat1(230-309) (15 nM) captured by anti-MBP antibody amine-coupled to a CM5 chip; Cdk7/Cyclin H complexes as analyte, multi-cycle kinetics, up to 150 nM, association 180 s, dissociation 900 s; 25 °C; 10 mM HEPES pH 7.4, 150 mM NaCl, 0.05% Tween20; steady-state affinity fit; Biacore 8K. To be noted: both partners purified.

Assay [4] concerns the target T2, Mat1 (230-309) (human, UniProt P51948).
T2 construct: also called C-terminal fragment of Mat1; source: lysate pooled with GST-Cdk7/Cyclin H lysate; purified (MBPTrap, TEV, SEC, reverse MBP and GST); not shown: MBP, N-terminal, cleaved
As to the kind of experiment: crystal structure; Cdk7/Cyclin H/Mat1(230-309) mixed 1:1 with VHH RD7-04, with 1 mM ADP/Mg2+; hanging drop, 0.1 M Hepes pH 7.0, PEG 6K/4K, 15 °C; 2.15 Å. To be noted: both partners purified.

Results on two molecules are retold here after paper PMC11297931, “Structural basis of Cdk7 activation by dual T-loop phosphorylation” (Nature Communications, 2024).

T1 sequence (P50613 2-346, chain 1 of 2): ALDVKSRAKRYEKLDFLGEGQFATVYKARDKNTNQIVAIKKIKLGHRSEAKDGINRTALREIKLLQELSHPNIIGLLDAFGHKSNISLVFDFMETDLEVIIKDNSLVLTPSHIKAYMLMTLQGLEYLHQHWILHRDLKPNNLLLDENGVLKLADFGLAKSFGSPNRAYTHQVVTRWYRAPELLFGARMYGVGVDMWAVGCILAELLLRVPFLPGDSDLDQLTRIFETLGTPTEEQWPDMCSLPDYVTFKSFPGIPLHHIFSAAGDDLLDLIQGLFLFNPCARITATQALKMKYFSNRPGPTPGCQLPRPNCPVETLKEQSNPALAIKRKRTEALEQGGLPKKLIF
T1 sequence (P51946 whole entry, chain 2 of 2): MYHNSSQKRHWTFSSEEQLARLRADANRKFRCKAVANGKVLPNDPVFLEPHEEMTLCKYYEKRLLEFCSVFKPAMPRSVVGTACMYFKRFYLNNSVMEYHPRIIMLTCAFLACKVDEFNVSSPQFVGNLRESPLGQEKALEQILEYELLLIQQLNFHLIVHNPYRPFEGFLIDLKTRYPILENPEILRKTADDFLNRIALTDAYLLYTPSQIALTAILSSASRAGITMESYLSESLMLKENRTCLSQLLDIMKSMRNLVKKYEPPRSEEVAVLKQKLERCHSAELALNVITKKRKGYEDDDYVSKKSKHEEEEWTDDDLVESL
Sequence of Cdk7(R167A)/Cyclin H binary complex (P50613 2-346 R167A, chain 1 of 2): as the sequence (P50613 2-346, chain 1 of 2) above, with R166A counted along it
Sequence of Cdk7(R167A)/Cyclin H binary complex (P51946 whole entry, chain 2 of 2): as the sequence (P51946 whole entry, chain 2 of 2) above

B1: MBP-Mat1_(230-309) (domain or fragment, human, UniProt P51948 230-309, looked up)
chain: GQHISLAPIHKLEEALYEYQPLQIETYGPHVPELEMLGRLGYLNHVRAASPQDLAGGYTSSLACHRALQDAFSGLFWQPS
notes: source: Sf9 (baculovirus), expressed separately from Cdk7/Cyclin H; purified as an MBP fusion protein; also in lysate (pooled with GST-Cdk7/Cyclin H lysate); not shown: MBP, N-terminal, kept
As to B1, the “stimulation of kinase activity by Mat1 addition, normalized to the complex without Mat1 (Fig. 3f)” value in assay [1] was around 5 fold; in assay [2], around 10 fold. The molecule also came in with a Kd in assay [3] of 9.8 nM.

B2: VHH_(RD7-04), form for co-crystallization (VHH)
VHH: QVQLVESGGGLVQPGGSLRLSCVASGFTFKNFYMGWVRQAPDKGLEWVATINSGGEIQSYADSVKGRFTISRDNAKNTLYLQMNNLRPEDTAVYYCSKQSSTPAKGQGTQVTVSS
notes: nanobody chain of the deposited structure PDB 8PYR; Expression construct pelB-His6-TEV-NB in a modified pET28a vector; also called nanobody VHH RD7-04; chaperoning nanobody; source: E. coli BL21 (DE3), periplasmic extract, purified (HisTrap, TEV, SEC, reverse Ni-NTA); not shown: His6, N-terminal, cleaved
Regarding B2, in assay [4], the binding result is reported as “binds”.
